Data published in publication PMC5019122.

Molecular target: BG505-10MUT (HIV-1 (isolate BG505))
Experiment: SPR

B1: MutHGLL121 (fully mature PGT121 IgH with predicted germline IgL) (antibody, V domains shown)
VH: QMQLQESGPGLVKPSETLSLTCSVSGASISDSYWSWIRRSPGKGLEWIGYVHKSGDTNYSPSLKSRVNLSLDTSKNQVSLSLVAATAADSGKYYCARTLHGRRIYGIVAFNEWFTYFYMDVWGNGTQVTVSS
VL: SYVLTQPPSVSVAPGQTARITCGGNNIGSKSVHWYQQKPGQAPVLVVYDDSDRPSGIPERFSGSNSGNTATLTISRVEAGDEADYYCQVWDSSSDHPWVFGGGTKLTVL
  Kd: 47 µM
